From US20190315859A1
Values belong to the binder of their own block, whether it stands above or below them.

How the values were obtained:
[1] = target: human CD19 expressed on the cell surface (native format) (human) (UniProt P15391); experiment: bi-specific antibody titration flow cytometry on Raji cells
[2] = target: human CD19 expressed on the cell surface (native format) (human) (UniProt P15391); experiment: flow cytometry, human PBMC gated on CD20+CD3- B cells, FITC anti-His detection
[3] = target: human CD19 expressed on the cell surface (native format) (human) (UniProt P15391); experiment: apparent KD from bi-specific antibody titration flow cytometry on Raji cells

Chain of human CD19 expressed on the cell surface (native format) (human) (P15391 20-488 limits assumed): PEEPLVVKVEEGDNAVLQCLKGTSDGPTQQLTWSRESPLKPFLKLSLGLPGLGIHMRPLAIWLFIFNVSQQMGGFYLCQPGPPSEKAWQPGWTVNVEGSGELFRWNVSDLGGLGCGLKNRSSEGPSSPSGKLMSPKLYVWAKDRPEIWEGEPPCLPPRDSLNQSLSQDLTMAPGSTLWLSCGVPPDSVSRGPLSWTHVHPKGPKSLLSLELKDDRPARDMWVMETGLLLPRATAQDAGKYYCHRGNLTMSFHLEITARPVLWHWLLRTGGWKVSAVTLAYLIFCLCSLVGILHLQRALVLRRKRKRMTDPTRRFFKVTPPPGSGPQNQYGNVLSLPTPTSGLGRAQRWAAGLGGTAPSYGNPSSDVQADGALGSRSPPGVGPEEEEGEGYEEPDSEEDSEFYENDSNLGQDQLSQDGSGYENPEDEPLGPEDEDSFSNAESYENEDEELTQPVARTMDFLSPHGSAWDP

EC50 [1]: 0.214 µg/mL
Mean Fluorescence Intensity (MFI) in FITC channel [2]: 2200 MFI
Kd [3]: 4.1 nM
B1: CD19×CD3 bi-specific antibody based on clone 6 (bispecific antibody, part only; not given: anti-CD3 scFv arm, linker, His tag, not shown: another chain or arm of the molecule; small tags and cut ends)
scFv: QAVLTQPPSVSEAPRQRVTISCSGSSSNVGNNAVNWYQQVPGKAPKLLIYYDDLLSSGVSDRFSGSKSGTSASLAISGLQSEDEADYYCAAWDDSLNGPVFGGGTKLTVLGSRGGGGSGGGGSGGGGSLEMAEVQLVQSGAEVKKPGESLKISCKGSGYSFTSYWIGWVRQMPGKGLEWMGIIYPGDSDTRYSPSFQGQVTISADKSISTAYLQWSSLKASDTAMYYCARWSSTWDSMYMDYWGQGTLVTVSS

EC50 [1]: 0.081 µg/mL
Kd [3]: 1.6 nM
B2: CD19×CD3 bi-specific antibody based on variant clone 5-3 (bispecific antibody, part only; not given: anti-CD3 scFv, linker, His tag, not shown: another chain or arm of the molecule; small tags and cut ends)
scFv: LPVLTQPPSVSVAPGKTARITCGGNNIGSKSVHWYQQKPGQAPVLVVYDDSNRPSGIPERFSGSNSGNTATLTISRVEAGDEADYYCQVWDSSSEYVVFGGGTKLTVLGSRGGGGSGGGGSGGGGSLEMAEVQLVQSGAEVKKPGESLKISCKGSGYSFTSYWIGWVRQMPGKGLEWMGIIYPGDSDTRYSPSFQGQVTISADKSISTAYLQWSSLKASDTAMYYCARQVWGWQGGMYPRSNWWYNMDSWGQGTLVTVSS

Mean Fluorescence Intensity (MFI) in FITC channel [2]: 1880 MFI
B3: CD19×CD3 bi-specific antibody based on clone 7 (bispecific antibody, part only; not given: anti-CD3 scFv, linker, His tag, not shown: another chain or arm of the molecule; small tags and cut ends)
scFv: QPVLTQPPSVSVAPGKTARITCGGNNIGSESVHWYQQKPGQAPMVVIYYDSNRPSGIPERFSGSNSGNTATLTVSRVEAEDEADYYCQVWNSSSDHRGVFGGGTKLTVLGSRGGGGSGGGGSGGGGSLEMAEVQLVQSGAEVKKPGESLRISCKGSGYSFTSYWIGWVRQMPGKGLEWMGIIYPGDSDTRYSPSFQGQVTISADKSISTAYLQWSSLKASDTAMYYCARVTYSMDSYYFDSWGQGTLVTVSS
